{
  "source": "the DeepSol protein solubility set",
  "data": [
    {"assay": "soluble on expression in E. coli; label from the status in PepcDB or PDB records", "values": [
      {"sequence": "MEPDLKNVKNAGTGESNKDEIKNTNASRRSGRKVKTIIEEDPNINKKMELPPTLMPKFPSQKIIKQQKSPDKNEPPPARPVEQTEENEENNADEKEKHEIFWQEGVIEECQGREDEGEVPKEQEEHAHVSPDPTSLNDKKSKFEKPNLEPGKPEKPEKLDKPLAKPLPPPSAAPPPVAPLSAPVPSTGAPPSAVPPADKKMSKQSTRDKKSGRSTDRNIHKKKDVAALDENKKSPEDKKKDAGTKKGSTEDASTDNLNNGKVQSRRKSKRQKKSIFQQPVQRTPGSHPSAYLQPTRARTERSLKLPPAEPKSVDERPRKPSTQILQPQQPNRGGQVQKQPSKVVLQPGAPGATPVASTPNQREQAQQQQQQQQKGPMGLFKKIYRKMNFRAASDCTVEPTKEMLAKSYVRPEHNSNDPIDFCPDLPKKLFDEEAWKLRMTNKGANRNEVFLNNRPFWLTRDGTEQIPKVRIQLHRPLKQMHSGNPASIQLKLQRTDPFLDPKEDTLERLKIVDKAIGVDPLDLTKDRELKRVCANTFHGTLMFEVDKRQYDTQQKKAEAEALKLDPKRKNDGKEKDQKSSFEDPKKVAFNVSDKCTLHVYFRKHRPLTNQGKSERFTEKKYTMGERKIMKKGEKPAVPQLVPPTSSSTTSASSSSCRETKKL", "soluble on expression in E. coli": "not soluble"},
      {"sequence": "MPQFLKGVTLENREGDELPAEEHLKGKIIGLYFSASWCPPCRAFTPKLKEFFEEIKKTHPEFEIIFVSRDRNSSDLVTYFKEHQGEWTYIPFGSDKIMSLMQKYEVKTIPAMRIVNDQGEVIVQDARTEIQNKGENVEGLWAEWMALIK", "soluble on expression in E. coli": "not soluble"},
      {"sequence": "MSDALDDENVLCFRYKSYYIKDDGSRIDTLNEERIKHIVDFTLDKYLDATQNTPKFDNFENPVKEGFNSIFACESKEAAIEYYKEFKKQIEQKKLPIKIASIIAQTKVVMNKKLV", "soluble on expression in E. coli": "soluble"},
      {"sequence": "MIKGSCLCGDIRYTTEAAPQGASMCHCGQCRRQSGGVWSSAFVPEADLTITGPVSWFAASDTAKRGFCARCGSFLFWKANDEDTISFSLGSVDGPTGLRLTKHIFVAGKGDYYDIADDAPHKD", "soluble on expression in E. coli": "not soluble"},
      {"sequence": "MGSDKIHHHHHHMTKLMPKFEQHRTDFAYCQTITKRSSSAFYTAFSQLPLERAWSIYAVYAFCRTADDLVDVDHDIDGLMALRQSLTTFANGHVPDHPMWRALAVVFETYDMNLDVFFDMLTGQEQDATFKQPQTQQALEDYCYYVAGSVGLMILPMLATNPQSLVKPAVELGSAMQLTNILRDVGEDYQRGRIYLPSKLLAHYQLNPTDLHGPIPSANFIRLWEHEAQIAMNKYEAALTMMPQIDPVARPSLLAATLLYRELLLIAREQHYPILSQRVFLTDERKTQVLNQVSTKVHELALKEA", "soluble on expression in E. coli": "not soluble"},
      {"sequence": "GMSDDLTDAQTAAIPEGFSQLNWSRGFGRQIGPLFEHREGPGQARLAFRVEEHHTNGLGNCHGGMLMSFADMAWGRIISLQKSYSWVTVRLMCDFLSGAKLGDWVEGEGELISEEDMLFTVRGRIWAGERTLITGTGVFKALSARKPRPGELAYKEEA", "soluble on expression in E. coli": "soluble"},
      {"sequence": "MAAPVAPSEPQASRAPQPPVCLLVLGMAGSGKTTFVQRLTGHLHNKGCPPYVINLDPAVHEVPFPANIDIRDTVKYKEVMKQYGLGPNGGIVTSLNLFATRFDQVMKFIEKAQNTFRYVLIDTPGQIEVFTWSASGTIITEALASSFPTVVIYVMDTSRSTNPVTFMSNMLYACSILYKTKLPFIVVMNKTDIIDHSFAVEWMQDFEAFQDALNQETTYVSNLTRSMSLVLDEFYSSLRVVGVSAVVGTGFDELCTQVTSAAEEYEREYRPEYERLKKSLANAQSNQQKEQLERLRKDMGSVALDPEAGKGNASPVLDPSDLILTRGTLDEEDEEADSDTDDIDHRVTEESREEPAFQNFMEESMAHWKRNK", "soluble on expression in E. coli": "not soluble"},
      {"sequence": "MGSDKIHHHHHHMTAEVAIINRSGIALAADSAVTIGRDRVWKNSNKLFHLAPSNDVAVMVFGSGDYCGLPWEVVIKEFRKSLGKTTYSRVEEYVGRFLGFLDDLVVPPTPLADLTGWYIILNAISQTQKAMTASGSLKRRQQLIAAISEKIEEADHYPLLFDGYSRDQYRKKHSQKIKEFMAEELGMHVTQTMHSKMITLCYERSRRAFETKFETGVVFAGYGDSELLPVVIEMCVDGELEGKVRAWQVRENNMNEGGTSGAILPFAQADVANLFVEGTLPQYLSYTRQTLLQTLDLKTAELVKDYVPEPDRVVEMERQKKANRAMVKQFSTDFKQYRHDESVANLLKVVNSLPKEEMAAMAEALVEITSLRRKMDSSLETVGGPVDVAIISKSDGFVWTKRKHYFDVEFNRDFMERRNQRYQGNQDA", "soluble on expression in E. coli": "not soluble"},
      {"sequence": "MGSDKIHHHHHHESEDPWLVLQKAARAAHELSYKGVFIYQAGDNIKSVQITHTNSGQGEYARMVVLDGAPREVLSQGGDVVIFSSKNEKVIMEKRRAHNLFPAVLPDDMELLKANYQARIGGTERIAGRAGRVVFLDPRDGLRYAYKFWADCEYGLLLKSLMLSEQKQMLEQMAFSQLNMMEEQGMDWFHPSVDHSKHYILEEANAQLVQEASNWTVGALPVGYRKVEQVTRLVPGKSAPVTQVIFTDGLASVSLFIEPLSKGVRPRIGQTSKGATHFYANVSKGHQILVVGEVPAATVAQIGSAVSFK", "soluble on expression in E. coli": "not soluble"},
      {"sequence": "MSLSEILTIGEPIVTFASKEPDVSLRDALEFHKILGGAELNVAIGAQRLGHSVDYISQVGEEPLGDYVIKTIKEHHVGTRYITRDADYWTAFQLKDRVTQGNPTTQNYRRGSAAAHLTPAVVDQIDLTDVRAAHMSGIFPAISATAEAAFRTLLKRLEAANILTTFDPNLRPTLWPSRGKMVTTLNELAGHAEIVLPGVEEGEILMGSTDPEKIADFYLRGARTKVVIVKVGPAGAYVKQQSGESYTVTGFKVAQVADTVGAGDGFAMGVLTALLEHKSLRSAVMRGNAVGALQVQTYGDNDGYPTPAGLQAFYQQEGVVEEGHHHHHH", "soluble on expression in E. coli": "not soluble"},
      {"sequence": "MGSDKIHHHHHHVLQLESIGVMDNYNKDLTPDQASAFLEVVDASLRIKKKAQLFSWLQGHFQFLLPHEVLLCGFAVGVGRNFSLETFSSTRYVTDAQVAIAMHERTGVVMKAIQAWRQTSQPVLIDPYLKDGNFGRFTVPKIDQVNLQESELRNIAAYGLSSADGSISSFFSFSRISGELNASHAYMLELLVPYLHSVLMRVSDGVFNFGDAMGEGVNAGIITPREKEILQWVHTGKSNWEIATILEISPLTVKNHMQNILRKLDVQNRSHAAAKAYRLGLIRH", "soluble on expression in E. coli": "not soluble"},
      {"sequence": "MGSDKIHHHHHHMIGLRLDGYDPDLHHDAAVAFCIRARDDELFSPRHQHRKGQLILALHGAITCEVENAMWMVPPQYAVWLPGSLPHSNHVTAGAELCFLFIEPAAVVMPERCCTLKISPLCRELILSLARRTDPERAQMPTQRLIQVLFDELPQQPQEQLQLPVSGHPKIRQMVETMAQEPARWNTLGQWASVFAMSERNLARLVVKETGLSFRRWRHQLQLILALQALIAGRNVQQTAQMLGYDSTTAFITMFKKGLGQTPGQYLTGELLLPHN", "soluble on expression in E. coli": "not soluble"},
      {"sequence": "MGSDKIHHHHHHMDDFDTPVTGNAYGNNTIKEQRTISIANLKEKYSSVISANQFQTVTEETRISGVVVGDDESGNIYKQLIVADETGAIVVGINSTGIYANCPVGQKVVIDCENLNVGGYGMQAQIGTTYKGAIGRMDLAVWLDHVRVINKPQLWYDELIPMELTGAQLKAYDKDLAPVLVMFKDVTIKEADGTATFAPEDLKDGGNGVNRTLVLDDNSTLTFRTSTYANFSTEVMPTGKINVIGILSRYNSTWQIVARTYSDIQRNN", "soluble on expression in E. coli": "not soluble"},
      {"sequence": "NKPSLLLYIHGFNSSPLSHKAQVMAEYCKVHRPDIKVIVPRLPSYPSQAAEFLVQLVEEYKDTHQIGLVGSSLGGYLSTWLNHQYGFKAALVNPAVKPYELLADYLGKQVNPYTQEEYFLEEKHMEELLALQVETLHSVDDLWLLQQEGDEVLDYRQAVDKYLACKQTIEKGGDHSFVNFERYPEQIIQFLN", "soluble on expression in E. coli": "not soluble"},
      {"sequence": "MGVVLARGAFRERSMLTLPDFPLPDARGRFGPYGGRYVPETLIPALEELEAAYREAKKDPAFLEELDHYLRQFAGRPTPLYHAKRLSEYWGGAQVFLKREDLLHTGAHKINNTLGQALLARRMGKRRVIAETGAGQHGVSVATVAALFGLECVVYMGEEDVRRQALNVFRMKLLGAEVRPVAAGSRTLKDATNEAIRDWITNVRTTFYILGSVVGPHPYPMMVRDFQSVIGEEVKRQSLELFGRLPDALIAAVGGGSNAIGLFAPFAYLPEGRPKLIGVEAAGEGLSTGRHAASIGAGKRGVLHGSYMYLLYDHDGQITPAHSVSAGLDYPGVGPEHSYYADAGVAEYASVTDEEALEGFKLLARLEGIIPALESAHAIAYAAKVVPEMDKDQVVVINLSGRGDKDVTEVMRLLGGEL", "soluble on expression in E. coli": "soluble"},
      {"sequence": "MSLTTLHFSGFPRVGAFRELKFAQEKYWRKEISEQELLAVAKDLREKNWKHQVAANADFVAVGDFTFYDHILDLQVATGAIPARFGFDSQNLSLEQFFQLARGNKDQFAIEMTKWFDTNYHYLVPEFHADTEFKANAKHYVQQLQEAQALGLKAKPTVVGPLTFLWVGKEKGAVEFDRLSLLPKLLPVYVEILTALVEAGAEWIQIDEPALAVDLPKEWVEAYKDVYATLSKVSAKILLSTYFGSVAEHAALLKALPVDGLHIDLVRAPEQLDAFADYDKVLSAGVIDGRNIWRANLNKVLETVEPLQAKLGDRLWISSSCSLLHTPFDLSVEEKLKANKPDLYSWLAFTLQKTQELRVLKAALNEGRDSVAEELAASQAAADSRANSSEIHRADVAKRLADLPANADQRKSPFADRIKAQQAWLNLPLLPTTNIGSFPQTTEIRQARSAFKKGELSAADYEAAMKKEIALVVEEQEKLDLDVLVHGEAERNDMVEYFGELLSGFAFTQYGWVQSYGSRCVKPPIIFGDVSRPEAMTVAWSTYAQSLTKRPMKGMLTGPVTILQWSFVRNDIPRSTVCKQIALALNDEVLDLEKAGIKVIQIDEPAIREGLPLKRADWDAYLNWAGESFRLSSAGCEDSTQIHTHMCYSEFNDILPAIAAMDADVITIETSRSDMELLTAFGEFQYPNDIGPGVYDIHSPRVPTEAEVEHLLRKAIEVVPVERLWVNPDCGLKTRGWKETLEQLQVMMNVTRKLRAELAKEGHHHHHH", "soluble on expression in E. coli": "not soluble"},
      {"sequence": "MSLSEIVVSKFGGTSVADFDAMNRSADIVLSDANVRLVVLSASAGITNLLVALAEGLEPCERFEKLDAIRNIQFAILERLRYPNVIREEIERLLENITVLAEAAALATSPALTDELVSHGELMSTLLFVEILRERDVQAQWFDVRKVMRTNDRFGRAEPDIAALAELAALQLLPRLNEGLVITQGFIGSENKGRTTTLGRGGSDYTAALLAEALHASRVDIWTDVPGIYTTDPRVVSAAKRIDEIAFAEAAEMATFGAKVLHPATLLPAVRSDIPVFVGSSKDPRAGGTLVCNKTENPPLFRALALRRNQTLLTLHSLNMLHSRGFLAEVFGILARHNISVDLITTSEVSVALTLDTTGSTSTGDTLLTQSLLMELSALCRVEVEEGLALVALIGNDLSKACAVGKEVFGVLEPFNIRMICYGASSHNLCFLVPGEDAEQVVQKLHSNLFEEGHHHHHH", "soluble on expression in E. coli": "soluble"},
      {"sequence": "MNVYFLGGGNMAAAVAGGLVKQGGYRIYIANRGAEKRERLEKELGVETSATLPELHSDDVLILAVKPQDMEAACKNIRTNGALVLSVAAGLSVGTLSRYLGGTRRIVRVMPNTPGKIGLGVSGMYAEAEVSETDRRIADRIMKSVGLTVWLDDEEKMHGITGISGSGPAYVFYLLDALQNAAIRQGFDMAEARALSLATFKGAVALAEQTGEDFEKLQKNVTSKGGTTHEAVEAFRRHRVAEAISEGVCACVRRSQEMERQYQ", "soluble on expression in E. coli": "soluble"},
      {"sequence": "AHHHHHHGSGLISDADKKVIKEEFFSKMVNPVKLIVFVRKDHCQYCDQLKQLVQELSELTDKLSYEIVDFDTPEGKELAKRYRIDRAPATTITQDGKDFGVRYFGLPAGHEFAAFLEDIVDVSREETNLMDETKQAIRNIDQDVRILVFVTPTCPYCPLAVRMAHKFAIENTKAGKGKILGDMVEAIEYPEWADQYNVMAVPKIVIQVNGEDRVEFEGAYPEKMFLEKLLSALS", "soluble on expression in E. coli": "soluble"},
      {"sequence": "SPAPAATYERVVYKNPSEYHYMKVCLEFQDCGVGLNAAQFKQLLISAVKDLFGEVDAALPLDILTYEEKTLSAILRICSSGLVKLWSSLTLLGSYKGKKCAFRVIQVSPFLLALSGNSRELVLD", "soluble on expression in E. coli": "soluble"}
    ]}
  ]
}
